Non-standard residues stand in square brackets, D forms with d. No end group written: not given here.
What was measured:
Test in all cases: cell-based or functional assay
NPY Y2 receptor (mouse) = NPY Y2 receptor (mouse) (UniProt P97295)
[1] = biological target: µ-opioid receptor (mouse) (UniProt P42866)
MC3-R (mouse) = MC3-R (mouse) (UniProt P33033)
Chain of MC3-R (mouse) (P33033 whole entry): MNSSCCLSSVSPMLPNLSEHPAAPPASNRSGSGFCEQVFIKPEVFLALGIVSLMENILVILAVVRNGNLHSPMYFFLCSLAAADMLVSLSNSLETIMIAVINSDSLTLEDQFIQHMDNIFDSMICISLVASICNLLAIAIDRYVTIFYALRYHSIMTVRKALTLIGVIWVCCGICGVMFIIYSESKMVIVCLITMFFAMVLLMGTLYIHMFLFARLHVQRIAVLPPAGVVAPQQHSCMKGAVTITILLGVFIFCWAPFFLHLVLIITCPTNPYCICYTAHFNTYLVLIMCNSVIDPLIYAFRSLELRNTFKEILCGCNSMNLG

Chain of µ-opioid receptor (mouse) (P42866 whole entry): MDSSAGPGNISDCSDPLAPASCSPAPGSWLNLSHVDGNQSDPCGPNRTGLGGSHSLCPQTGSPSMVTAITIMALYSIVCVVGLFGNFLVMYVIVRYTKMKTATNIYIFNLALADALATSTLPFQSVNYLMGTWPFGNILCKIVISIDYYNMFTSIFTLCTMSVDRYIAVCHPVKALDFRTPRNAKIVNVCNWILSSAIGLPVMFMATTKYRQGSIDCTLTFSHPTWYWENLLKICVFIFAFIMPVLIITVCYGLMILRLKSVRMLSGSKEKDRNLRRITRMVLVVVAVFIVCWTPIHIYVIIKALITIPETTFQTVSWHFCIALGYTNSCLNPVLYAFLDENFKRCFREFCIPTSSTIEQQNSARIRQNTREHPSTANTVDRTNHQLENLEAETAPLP
Chain of NPY Y2 receptor (mouse) (P97295 whole entry): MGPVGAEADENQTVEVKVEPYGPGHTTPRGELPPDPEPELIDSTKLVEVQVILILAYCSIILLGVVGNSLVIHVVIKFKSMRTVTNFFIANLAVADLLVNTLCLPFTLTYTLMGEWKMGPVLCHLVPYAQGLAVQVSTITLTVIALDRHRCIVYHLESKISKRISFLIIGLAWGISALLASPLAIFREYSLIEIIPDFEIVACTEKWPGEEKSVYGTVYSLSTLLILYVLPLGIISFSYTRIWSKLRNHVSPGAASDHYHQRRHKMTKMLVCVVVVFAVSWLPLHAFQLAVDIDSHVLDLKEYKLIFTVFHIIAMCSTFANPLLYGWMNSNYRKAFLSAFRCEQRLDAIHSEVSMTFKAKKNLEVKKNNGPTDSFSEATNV

neuropeptide Y (from UniProt P01303 29-64)
decrease of the frequency of GABAergic IPSCs in POMC cells (100 nM NPY) (NPY Y2 receptor (mouse)): 55%

N-acetyl (Leu^28, Leu^31) NPY (24-36) (from UniProt P01303 52-64) (peptide)
reduction of the frequency of inhibitory postsynaptic currents (IPSCs) onto POMC neurons (NPY Y2 receptor (mouse)): 44.4%

YGGFM (peptide, UniProt P01210 100-104, looked up) [met-enkephalin]
hyperpolarization of the membrane potential of POMC cells (whole cell recording, 30 µM Met-Enk) [1]: 10 to 20 mV

YVMGHFR[dW]DRFG (peptide, UniProt P01189 77-88, looked up, ends and bridges not checked) [D-Trp^8-γMSH]
frequency of GABAergic IPSCs recorded from POMC neurons (7 nM) (MC3-R (mouse)): 280%
hyperpolarization of POMC neurons (7 nM) (MC3-R (mouse)): -5.5 mV

— patent publication US7125979
